Consider three substances from US20130115681.

Where a chain is given by its changes, count along the chain named.

Assay in all cases: cleavage_in_vitro
Series [1] has as its system T1, NcoI-HF A2T/R31A (Nocardia corallina).
T1 sequence: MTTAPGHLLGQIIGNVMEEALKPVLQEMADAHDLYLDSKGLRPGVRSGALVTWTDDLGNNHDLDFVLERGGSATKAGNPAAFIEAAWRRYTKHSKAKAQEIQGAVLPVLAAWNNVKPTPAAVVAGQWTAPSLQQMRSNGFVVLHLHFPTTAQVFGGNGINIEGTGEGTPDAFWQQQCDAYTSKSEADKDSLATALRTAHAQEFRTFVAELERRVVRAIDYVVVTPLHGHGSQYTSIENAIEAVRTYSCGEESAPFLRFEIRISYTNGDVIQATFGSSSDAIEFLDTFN
Particulars: NEB4, 37 C.

The test system of the next series is BstXI-HF N65A. As to conditions: NEB4, 55 C.
Series [2] concerns the target T2, HindIII (Haemophilus influenzae Rd) (UniProt P43870).
T2 sequence: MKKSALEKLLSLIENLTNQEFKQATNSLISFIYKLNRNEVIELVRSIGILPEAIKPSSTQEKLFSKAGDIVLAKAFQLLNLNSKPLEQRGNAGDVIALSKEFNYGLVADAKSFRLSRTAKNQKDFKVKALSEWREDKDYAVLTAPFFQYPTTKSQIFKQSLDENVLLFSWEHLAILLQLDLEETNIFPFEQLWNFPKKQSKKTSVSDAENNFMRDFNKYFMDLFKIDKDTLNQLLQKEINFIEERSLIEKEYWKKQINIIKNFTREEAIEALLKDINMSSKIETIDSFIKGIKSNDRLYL
Particulars: NEB4, 37 C; FI 250 in NEB2.

For a further series, the system named is BsmBI-HF N185Y/R232A. Particulars: NEB4, 55 C.
For series [3], the system named is T3, SbfI-HF K251A (Streptomyces species Bf-61?).
T3 sequence: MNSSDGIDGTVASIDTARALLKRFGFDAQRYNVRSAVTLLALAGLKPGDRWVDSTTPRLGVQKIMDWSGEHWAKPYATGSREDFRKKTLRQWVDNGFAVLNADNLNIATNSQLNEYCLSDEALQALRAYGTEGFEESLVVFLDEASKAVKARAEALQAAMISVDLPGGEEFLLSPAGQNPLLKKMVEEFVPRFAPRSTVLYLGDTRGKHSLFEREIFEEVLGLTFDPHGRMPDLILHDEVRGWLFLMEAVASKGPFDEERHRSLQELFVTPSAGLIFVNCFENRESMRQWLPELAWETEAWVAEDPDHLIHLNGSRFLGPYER
Particulars: NEB4, 37 C.

In the next series the test system is BstXI. Particulars: NEB4, 55 C.
For series [4], the system named is T4, SbfI (Streptomyces species Bf-61?).
T4 sequence: T3 sequence with A251K
Particulars: NEB4, 37 C.

In series [5] the target is T5, PstI-HF D91A (Providencia stuartii 164) (UniProt P00640).
T5 sequence: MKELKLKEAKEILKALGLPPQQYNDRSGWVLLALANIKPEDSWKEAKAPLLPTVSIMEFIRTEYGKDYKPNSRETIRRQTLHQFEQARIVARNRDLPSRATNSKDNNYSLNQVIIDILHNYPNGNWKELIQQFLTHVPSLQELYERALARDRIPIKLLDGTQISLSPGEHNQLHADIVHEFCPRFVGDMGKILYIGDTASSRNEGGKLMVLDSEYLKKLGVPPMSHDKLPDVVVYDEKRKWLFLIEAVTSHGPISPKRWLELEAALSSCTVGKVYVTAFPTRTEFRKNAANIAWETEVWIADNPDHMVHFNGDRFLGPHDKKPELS
As to conditions: NEB4, 37 C.

Series [6] has as its system T6, SphI-HF K100A (Streptomyces phaeochromogenes).
T6 sequence: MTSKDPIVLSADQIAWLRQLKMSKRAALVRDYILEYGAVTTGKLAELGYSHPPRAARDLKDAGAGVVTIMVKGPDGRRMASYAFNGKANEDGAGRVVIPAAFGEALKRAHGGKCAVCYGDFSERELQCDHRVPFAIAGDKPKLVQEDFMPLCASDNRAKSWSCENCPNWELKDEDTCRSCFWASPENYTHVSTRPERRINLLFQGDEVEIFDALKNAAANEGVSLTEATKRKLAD
As to conditions: NEB4, 37 C.

The target of series [7] is T7, ScaI-HF H193A/S201F (Streptomyces caespitosus) (UniProt O52691).
T7 sequence: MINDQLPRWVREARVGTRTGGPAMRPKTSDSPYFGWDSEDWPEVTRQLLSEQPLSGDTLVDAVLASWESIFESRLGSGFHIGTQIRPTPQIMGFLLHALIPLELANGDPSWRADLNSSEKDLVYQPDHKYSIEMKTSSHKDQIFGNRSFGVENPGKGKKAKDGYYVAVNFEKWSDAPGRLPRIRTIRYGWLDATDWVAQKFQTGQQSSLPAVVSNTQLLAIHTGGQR
As to conditions: NEB4, 37 C.

Series [8] concerns the target T8, BamHI-HF E163A/E167T (Bacillus amyloliquefaciens) (UniProt P23940).
T8 sequence: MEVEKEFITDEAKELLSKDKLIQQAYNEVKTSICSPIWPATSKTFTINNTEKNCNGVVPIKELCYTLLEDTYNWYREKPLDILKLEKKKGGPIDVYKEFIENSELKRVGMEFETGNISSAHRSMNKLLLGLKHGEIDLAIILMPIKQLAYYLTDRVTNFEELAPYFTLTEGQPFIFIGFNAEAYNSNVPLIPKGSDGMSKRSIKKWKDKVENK
As to conditions: NEB4, 37 C.

Series [9] concerns T9, BspQI-HF K279P/R388F (Bacillus sphaericus).
T9 sequence: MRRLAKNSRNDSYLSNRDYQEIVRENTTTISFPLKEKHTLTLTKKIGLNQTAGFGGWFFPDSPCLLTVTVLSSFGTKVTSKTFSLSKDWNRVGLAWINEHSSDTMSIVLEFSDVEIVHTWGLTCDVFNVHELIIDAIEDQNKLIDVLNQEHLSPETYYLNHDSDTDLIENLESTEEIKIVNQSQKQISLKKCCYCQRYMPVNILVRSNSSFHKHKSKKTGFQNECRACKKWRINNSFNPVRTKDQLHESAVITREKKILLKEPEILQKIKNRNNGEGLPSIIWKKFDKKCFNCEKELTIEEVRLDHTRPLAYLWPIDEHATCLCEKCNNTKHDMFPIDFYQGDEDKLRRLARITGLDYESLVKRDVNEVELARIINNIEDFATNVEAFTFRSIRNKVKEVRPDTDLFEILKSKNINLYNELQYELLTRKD
Particulars: NEB4, 50 C.

Series [10] concerns the target T10, SalI-HF R107A (Streptomyces albus G) (UniProt Q53608).
T10 sequence: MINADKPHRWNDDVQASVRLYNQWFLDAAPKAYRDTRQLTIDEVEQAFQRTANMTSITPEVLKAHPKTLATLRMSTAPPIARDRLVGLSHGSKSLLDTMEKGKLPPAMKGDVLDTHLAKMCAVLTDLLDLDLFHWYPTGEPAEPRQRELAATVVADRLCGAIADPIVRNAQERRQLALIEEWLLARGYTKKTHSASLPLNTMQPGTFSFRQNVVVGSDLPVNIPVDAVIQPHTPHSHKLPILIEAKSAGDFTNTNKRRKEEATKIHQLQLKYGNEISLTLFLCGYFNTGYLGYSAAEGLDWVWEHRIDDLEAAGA
As to conditions: NEB4, 37 C.

Series [11] addresses T11, SalI (Streptomyces albus G) (UniProt Q53608).
T11 sequence: T10 sequence with A107R
Particulars: NEB4, 37 C.

With lambda phage DNA, the activity (fidelity index) was found to be 64000 in series [1]; 250 with BstXI-HF N65A; 32 in [2]; 500 in the series on BsmBI-HF N185Y/R232A; 250 in series [3]; 4 in the series with BstXI. In addition, the activity (fidelity index) in series [4] came out at 8; in [5] it was 4000; in series [6] it was 8000; in series [7], 1000; in [8], 4000.
Take pUC19: the activity (fidelity index) in series [9] is 4000.
With HindIII-digested lambda DNA, the results for the activity (fidelity index) in series [10] and in series [11] were 32000 and 1, respectively.
